Results reported in patent US8337851B2, “Methods of monitoring the efficacy of anti-CD40 antibodies in treating a subject for a CD40-expressing cancer” (Novartis AG, priority 2005, dated 2012).
“Also recorded” adds a separate entry of the source.

Legend:
B-CLL cells [1] = assay: p38 MAPK signaling in B-CLL cells, four-hour experiment; format: cell-based, human; conditions: 4 hours; SB203580 30 and 60 μM, CHIR-12.12 10 μg/mL
Protocol: In the four-hour experiment, approximately 0.8×10^6 B-CLL cells per well were serum starved in 1% FBS-containing media for 4 hours. […] Cell lysates were collected before and 20 minutes after CD40L stimulation. Western blot analysis with antibodies against specific proteins shown were conducted, and equal loading was evaluated by probing with antibodies to total p38 (t-p38) and β-actin.

B-CLL cells [2] = assay: p38 MAPK signaling and survival in B-CLL cells, 24-hour experiment; format: cell-based, human
Protocol: In the 24-hour experiment, approximately 0.8×10^6 B-CLL cells per well were placed in full serum (10% FBS)-containing media for 24 hours. […] Western blot analysis with antibodies against specific proteins shown was conducted, and equal loading was evaluated by probing with antibodies against β-actin.

[3] = system: IM-9 tumor cells (a human multiple myeloma cell line); assay: IM-9 multiple myeloma subcutaneous xenograft model; format: in vivo, SCID mice
Protocol: SCID mice were inoculated subcutaneously with IM-9 tumor cells (a human multiple myeloma cell line expressing both CD40 and CD20) in 50% […]™ at 5×10^6 cells per mouse. […] Alternatively, bortezomib dosing at 1 mg/kg intravenously occurred on days 5, 8, 12, and 15 after tumor implantation. […] Antibody dosing occurred on days 8, 14, and 21 post tumor implantation, while bortezomib dosing occurred on days 8, 11, 14 and 18 post tumor implantation. […] Data were analyzed using the log-rank test.

KMS-12-BM tumor = assay: Human KMS-12-BM subcutaneous xenograft model; format: in vivo, SCID mice; conditions: 1 mg/kg i.v. twice a week for two weeks (maximal tolerated dose); P>0.05
Protocol: Female SCID mice were treated with 3Gy irradiation one day prior to implantation of tumor cells. On the day of implantation, cells were prepared at a concentration of 5×10^7 cells/ml in 50% matrigel. Cells were implanted subcutaneously over the right flank at 5×10^6 cells/100 μl/mouse. […] Antibodies were administered intraperitoneally once a week for 4 weeks. Bortezomib was administered intravenously twice a week for two weeks.

[4] = system: B-CLL cells from patients; assay: PI3K and MEK inhibitors on CD40L signaling and survival in B-CLL cells; format: cell-based, human
Protocol: A PI3K inhibitor (LY294002; Sigma, St. Louis, Mo.) and MEK inhibitor (PD98595; Cell Signaling Technology, Beverly, Mass.) were used to dissect the pathways required for CLL cell survival. In these experiments, 1.0×10^6 B-CLL cells from patients were serum starved in 1% FBS containing media for 4 hours. Serum-starved cells were then pretreated with LY294002 (PI3K inhibitor, 30 μM) or PD98595 (MEK inhibitor, 10 μM). Cell lysates were then collected before and 20 minutes after CD40L stimulation. Western blot analysis with antibodies to p-IKK α/β, p-ERK, p-Akt was conducted, and equal loading was evaluated by probing antibodies to total ERK and β-actin.

[5] = system: CD40-expressing target cells; assay: ADCC activity of anti-CD40 antibodies (Table 1); format: cell-based
[6] = system: B cells from normal human subjects; assay: In vitro CD40 ligand-mediated proliferation of normal B cells; format: cell-based
Description: (§1) 2, 2000, and PCT International Application No. PCT/US01/30857, also titled “Human Anti-CD40 Antibodies,” filed Oct. 2, 2001, both of which are herein incorporated by reference in their entirety.
(§2) 4, 2003, Nov. 26, 2003, and Apr. 27, 2004, and assigned U.S. Patent Application Nos. 60/517,337, 60/525,579, and 60/565,710, respectively, and International Patent Application No. PCT/US2004/037152, also entitled “Antagonist, Anti-CD40 Monoclonal Antibodies and Methods for Their Use,” filed Nov. 4, 2004; the contents of each of which are herein incorporated by reference in their entirety.

[7] = system: human lymphocytes from normal subjects; assay: Proliferation of human lymphocytes; format: cell-based; conditions: antibody alone
soluble CD40 = soluble CD40 (Homo sapiens, UniProt P25942); assay: ELISA-type binding to soluble CD40; conditions: ELISA-type assays
soluble CD40, sequence (P25942 21-193 limits assumed): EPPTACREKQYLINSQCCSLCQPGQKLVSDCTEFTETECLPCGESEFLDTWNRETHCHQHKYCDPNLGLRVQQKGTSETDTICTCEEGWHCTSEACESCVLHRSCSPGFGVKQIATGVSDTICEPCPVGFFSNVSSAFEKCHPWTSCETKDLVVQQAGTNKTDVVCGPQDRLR
Description: as §1

cell-surface CD40 = cell-surface CD40 (Homo sapiens, UniProt P25942); assay: Flow cytometric CD40-ligand binding blockade and displacement; conditions: flow cytometric assays / FACS
cell-surface CD40, sequence (P25942 21-277): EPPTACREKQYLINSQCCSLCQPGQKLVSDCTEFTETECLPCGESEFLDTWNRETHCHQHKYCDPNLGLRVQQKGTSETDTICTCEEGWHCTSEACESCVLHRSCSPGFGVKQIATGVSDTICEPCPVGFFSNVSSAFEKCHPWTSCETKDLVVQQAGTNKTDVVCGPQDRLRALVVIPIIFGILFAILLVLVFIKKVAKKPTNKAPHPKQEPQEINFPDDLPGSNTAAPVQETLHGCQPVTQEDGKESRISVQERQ
Description: as §1, §2

[8] = system: primary cancer cells from NHL patients; assay: ADCC against primary cancer cells; format: cell-based, human; conditions: in vitro
Description: as §2

[9] = system: cancer cells from NHL and CLL patients; assay: In vitro CD40 ligand-mediated proliferation of patient cancer cells; format: cell-based, human
Description: as §2

B-CLL cells [10] = assay: CellTiter-Glo viability of CLL patient PBMCs; format: cell-based, human; conditions: 72 hours, 2 μg/ml rhsCD40L + 4 μg/ml enhancer
Protocol: Cell viability was determined after 72 hours using the CellTiter-Glo® Luminescent Cell Viability Kit (Promega, Madison, Wis.), which measures cellular ATP, and expressed as Relative Luminescence Units (RLU). Percent blockade was calculated as follows: […]

normal B cells = assay: CD40L-induced cytokine secretion from normal B cells (Meso Scale Discovery); format: cell-based, human; conditions: 24 hours
Protocol: (§3) Cells (1×10^5 cells per well) were cultured in a 96-well plate in the presence or absence of CD40L (CD40 transfected, formaldehyde fixed CHO cells, 2×10^5 per well). […] Production of hIL-6, hIL-8, hIL-10, hTNF-α, hGM-CSF, hIL-1b, hIL-12p70, MCP-1, and MIP-1β was measured by Meso Scale Discovery® multi-array system (Meso Scale Discovery, Gaithersburg, Md.).

CLL cells = assay: CD40L-induced cytokine secretion by CLL cells (Meso Scale Discovery); format: cell-based, human; conditions: CLL #1; 24 hours
Protocol: as §3

B-CLL cells [11] = assay: cPARP flow cytometry of CLL patient PBMCs; format: cell-based, human; conditions: 24 hours
Protocol: [formula] cPARP analysis by flow cytometry was performed after 24 hours in culture. Cells were treated with FACSLysis buffer (BD Biosciences) and frozen. After fixation in 1% formaldehyde for 45 min, cells were washed and incubated with PE-conjugated mouse anti-human CD19 for 30 min at room temperature (RT). Cells were then permeabilized using 70% ethanol on ice for 30 min and stained for 30 min at RT with rabbit anti-human cPARP antibody or isotype control rabbit IgG along with PerCP-Cy5.5-labeled mouse anti-human CD5. This was followed by incubation with goat anti-rabbit IgG-AlexaFluor 647 for 30 min at RT before fixing with 1% formaldehyde and analyzing by flow cytometry. Percent blockade was calculated as follows: […]

C[S+]([O-])c1ccc(-c2nc(-c3ccncc3)c(-c3ccc(F)cc3)[nH]2)cc1 (stereo not shown) [SB203580, reference compound]
p38 activation by CD40L (B-CLL cells [1]): slightly inhibited
cleaved Caspase-3 (B-CLL cells [2]; CD40L): induced to a lesser extent
p38 phosphorylation (B-CLL cells [2]; CD40L): similarly blocked
cleaved-PARP (B-CLL cells [2]; SB203580 30 and 60 μM, CHIR-12.12 10 μg/mL, CD40L): significantly induced
Bcl-xl expression (B-CLL cells [2]; especially 60 μM SB203580 and 10 μg/ml CHIR-12.12): blocked

CC(C)C[C@H](NC(=O)[C@H](Cc1ccccc1)NC(=O)c1cnccn1)B(O)O [bortezomib, reference compound]
tumor growth ([3]; first study, CHIR-12.12 1 and 10 mg/kg i.p. days 5, 12, 18, bortezomib 1 mg/kg i.v. days 5, 8, 12, 15): inhibited tumor growth at 15, 18, and 21 days post tumor implantation
tumor growth ([3]; second study, bortezomib 1 mg/kg i.v. days 8, 11, 14, 18): did not display statistically significant growth inhibition
tumor volume reduction (KMS-12-BM tumor): 22%

COc1cccc(-c2cc(=O)c3ccccc3o2)c1N [PD98595]
IKK/NFkB activation ([4]; LY294002 30 μM or PD98595 10 μM): no change of IKK/NFkB activation
survival mediated by CD40L (cleaved PARP, caspase-3, Bcl-xl) ([4]; LY294002 or PD98595, FIG. 9): no change of survival mediated by CD40L
activation of ERK induced by CD40L ([4]; PD98595 10 μM, 20 minutes after CD40L): inhibited activation of ERK

CHIR-5.9: fully human anti-CD40 monoclonal antibody of the IgG1 isotype from hybridoma cell line 131.2F8.5.9 (ATCC PTA-5542)
killing of CD40-expressing target cells by ADCC [5]: able to kill CD40-expressing target cells
effect on proliferation of normal B cells [6]: act as antagonist anti-CD40 antibodies; also recorded: inhibit in vitro CD40 ligand-mediated proliferation of normal B cells
induction of lymphocyte proliferation (agonist activity) [7]: do not induce strong proliferation of human lymphocytes from normal subjects
binding to soluble CD40 (soluble CD40): bind soluble CD40
displacement of pre-bound CD40-ligand (cell-surface CD40): displace the pre-bound CD40-ligand; also recorded: can compete off CD40-ligand pre-bound to cell surface CD40
prevention of CD40-ligand binding to cell-surface CD40 (cell-surface CD40): prevent the binding of CD40-ligand to cell-surface CD40; also recorded: can prevent CD40-ligand binding
killing of primary cancer cells by ADCC [8]: kill primary cancer cells from NHL patients by ADCC
effect on CD40 ligand-mediated proliferation of cancer cells [9]: inhibiting in vitro CD40 ligand-mediated proliferation of cancer cells from NHL and CLL patients

B1: CD40L: CD40 ligand used as stimulus: transfected formaldehyde fixed CHO cells (Example 4) or recombinant human soluble CD40L (Example 7) (protein)
chain: MIETYNQTSPRSAATGLPISMKIFMYLLTVFLITQMIGSALFAVYLHRRLDKIEDERNLHEDFVFMKTIQRCNTGERSLSLLNCEEIKSQFEGFVKDIMLNKEETKKENSFEMQKGDQNPQIAAHVISEASSKTTSVLQWAEKGYYTMSNNLVTLENGKQLTVKRQGLYYIYAQVTFCSNREASSQAPFIASLCLKSPGRFERILLRAANTHSSAKPCGQQSIHLGGVFELQPGASVFVNVTDPSQVSHGTGFTSFGLLKL
samples in which CD40L promoted survival of B-CLL cells (B-CLL cells [10]): 7/7
MCP-1 secretion (normal B cells; Donor 1): 5.5 folds of induction over background
MIP-1β secretion (normal B cells; Donor 1): 2.2 folds of induction over background
hGM-CSF secretion (normal B cells; Donor 1): no induction
hIL-1b secretion (normal B cells; Donor 1): no induction
hIL-6 secretion (normal B cells; Donor 1): 5.7 folds of induction over background
hIL-8 secretion (normal B cells; Donor 1): 7.7 folds of induction over background
hIL-10 secretion (normal B cells; Donor 1): 3.6 folds of induction over background
hIL-12p70 secretion (normal B cells; Donor 1): no induction
hTNF-α secretion (normal B cells; Donor 1): 3.7 folds of induction over background
MIP-1β secretion (normal B cells; Donor 2): 2.6 folds of induction over background
hIL-1b secretion (normal B cells; Donor 2): no induction
hIL-6 secretion (normal B cells; Donor 2): 3.8 folds of induction over background
hIL-8 secretion (normal B cells; Donor 2): 14.7 folds of induction over background
hTNF-α secretion (normal B cells; Donor 2): 4.8 folds of induction over background
MCP-1 secretion (normal B cells; Donor 3): 1.7 folds of induction over background
MIP-1β secretion (normal B cells; Donor 3): 17.8 folds of induction over background
hGM-CSF secretion (normal B cells; Donor 3): no induction
hIL-1b secretion (normal B cells; Donor 3): no induction
hIL-6 secretion (normal B cells; Donor 3): 20.5 folds of induction over background
hIL-8 secretion (normal B cells; Donor 3): 49.3 folds of induction over background
hIL-10 secretion (normal B cells; Donor 3): 3.6 folds of induction over background
hIL-12p70 secretion (normal B cells; Donor 3): no induction
hTNF-α secretion (normal B cells; Donor 3): 22.8 folds of induction over background
MCP-1 secretion (CLL cells): 5.5 folds of induction over background
MIP-1β secretion (CLL cells): no induction
hGM-CSF secretion (CLL cells): 7.6 folds of induction over background
hIL-1b secretion (CLL cells): no induction
hIL-6 secretion (CLL cells): no induction
hIL-8 secretion (CLL cells): 4.0 folds of induction over background
hIL-10 secretion (CLL cells): 9.2 folds of induction over background
hTNF-α secretion (CLL cells): 3.3 folds of induction over background
samples in which CD40L promoted survival of B-CLL cells (B-CLL cells [11]): 6/7
